# Experimental data: the supplement of paper PMC10724198
# ± gives the standard deviation of the averaged measurements.
# Test system: Saccharomyces cerevisiae
# Assay: protein stability index of tFT-peptide fusion (C-terminal peptide) (PSI (0-1 scale)); higher = more stable (slower turnover)
# Details: genetic background: wild type; temperature: 30 C
# Method: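 Multiplexed protein stability (MPS) profiling in S. cerevisiae. Random 12-aa peptides (tFT-X12 library) are fused to the C-terminus of a sfGFP-mCherry tandem fluorescent timer, after mCherry and a GGGS linker. Cells are FACS-sorted into 8 mCherry/sfGFP bins and deep-sequenced. The protein stability index (PSI) is the read-weighted bin average, scaled from 0 (unstable) to 1 (stable). Only peptides with >10 reads are reported; cells were grown at 30 °C in SC-His with glucose.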
# 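Also: PSI is a weighted mean of sequencing reads over stability bins, variants kept only with over 10 reads, mCherry proximal and sfGFP distal, peptide attached via GGGS linker.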
row,Sequence,protein stability index
1,VFSLLRCLFRPP,0.669 ± 0.012
2,PAHPPPPATPCP,0.6817 ± 0.0063
3,RLGVTVPLSGTV,0.5342 ± 0.00099
4,KWETAAGSSDGP,0.6993 ± 0.0032
5,RAYATPIPRSAI,0.655 ± 0.046
6,YENFHTRFAVGV,0.504 ± 0.037
7,PYWVPSKSSLSP,0.742 ± 0.068
8,DRSRLWSHPCPG,0.647 ± 0.0098
9,PLLPPPPPLSPP,0.6772 ± 0.0035
10,GRVRARGRRGKG,0.625 ± 0.058
11,KNPKKMKKVTTK,0.694 ± 0.0091
12,PPTRPFHLFDHL,0.716 ± 0.029
13,PFSLPPPHLWSI,0.746 ± 0.065
14,HPPVFFSPCGIL,0.634 ± 0.033
15,PLPSPSSSSSPI,0.674 ± 0.043
16,SFYFAPLLSPFA,0.597 ± 0.036
17,RSFGRVVSCSGC,0.6993 ± 0.0056
18,VSPLDSPASLYS,0.6573 ± 0.0062
19,SLFFSTVELFFV,0.6707 ± 0.0053
20,PHPPPSSRLLSR,0.751 ± 0.058
21,YDDSSLLFSNNL,0.702 ± 0.0078
22,FGCSRRERKGRG,0.826 ± 0.016
23,KKVKKKRSKKNT,0.66 ± 0.17
24,ELLPFPPPSAPT,0.719 ± 0.022
25,TLESRPALVFFS,0.681 ± 0.0088

row,Sequence,protein stability index
1,KKRQNIAKSEDT,0.701 ± 0.025
2,PSFPRSPHTAPH,0.746 ± 0.022
3,YEPNYKEKKTQY,0.69 ± 0.017
4,KKQRKRKMTERG,0.742 ± 0.11
5,KLKIDKKKNTFE,0.728 ± 0.047
6,EGGETLLGAKGR,0.639 ± 0.013
7,HLPPSRPSFSAP,0.747 ± 0.015
8,RAHLVSAPPQNF,0.7074 ± 0.0033
9,CFAFRPLLPSSP,0.686 ± 0.0086
10,YRDQAGTGSWRM,0.692 ± 0.023
11,GRYLGARRGRAF,0.68 ± 0.078
12,NKKGMSIWANER,0.68915 ± 0.0002
13,WGVVGEWAGVGR,0.747 ± 0.052
14,PLFPSPSPPRHP,0.7435 ± 0.0018
15,PPLPPSPPRSPP,0.552 ± 0.029
16,RLGWGGVGVAGV,0.683 ± 0.013
17,TKHCRFCKSGFV,0.7133 ± 0.0063
18,PRPVRPSPHPPP,0.689 ± 0.1
19,RPPPLLSPPSPP,0.718 ± 0.026
20,GVWFWRLKGEGN,0.713 ± 0.045
21,EPSAPYYCVTKG,0.7279 ± 0.002
22,VGGCRVRDVAGE,0.686 ± 0.042
23,FRDEGYCFADLV,0.71 ± 0.094
24,RKNHPEKKKKPN,0.673 ± 0.024
25,RSVPPSSPPPYF,0.699 ± 0.037

row,Sequence,protein stability index
1,FGGGWGGGVVLV,0.691 ± 0.0086
2,DGDIIVVQINKL,0.6471 ± 0.0039
3,SLKPHTCPPRPA,0.57 ± 0.15
4,VLLATPFSAIFR,0.6907 ± 0.0057
5,RHVCPLLYPCSS,0.635 ± 0.036
6,IGCSELSGLGGY,0.769 ± 0.12
7,NIPESSVSKLSK,0.678 ± 0.026
8,SPPRSVSVGVHK,0.637 ± 0.03
9,SALLPSPGPPAF,0.656 ± 0.089
10,KKKKKGASEDNI,0.786 ± 0.1
11,HSLPPLRPYPSP,0.7553 ± 0.00076
12,AWLCSVFLLSLS,0.533 ± 0.0076
13,RGSPFTAWSVLR,0.753 ± 0.019
14,RPTTTQPPPTAS,0.62 ± 0.022
15,KLLLYNILSYWS,0.56105 ± 0.00055
16,QFRCAIFRLSFV,0.613 ± 0.023
17,RWPPPPPELPPP,0.655 ± 0.039
18,RGSPPDPRGRAG,0.685 ± 0.074
19,LIKKSFYMKIIK,0.59 ± 0.057
20,GGVGGGAAEGAV,0.758 ± 0.024
21,STASSFFFFCCF,0.664 ± 0.026
22,LSSCPPPALRLP,0.715 ± 0.013
23,KDEVESGRGLIS,0.633 ± 0.044
24,QYQDRHIDRSGR,0.657 ± 0.078
25,NLRSIYKLGRLT,0.549 ± 0.011

row,Sequence,protein stability index
1,AGGAGWGLVLGC,0.647 ± 0.082
2,QTVPGKNLDGDL,0.714 ± 0.013
3,WSRRGQRGKAWR,0.733 ± 0.12
4,SPYLGSALPPDR,0.628 ± 0.07
5,FLSFECRFPFQW,0.795 ± 0.069
6,VVDGSILTIRCL,0.6226 ± 0.0048
7,DCGYPESTGTAF,0.656 ± 0.036
8,PLPPPPDSPPLP,0.694 ± 0.013
9,WWFGGETGVGGR,0.712 ± 0.039
10,GGRGRGMWGIFG,0.681 ± 0.0096
11,IRNGYVGNYKGN,0.744 ± 0.025
12,FPLLAPAVSPHT,0.662 ± 0.071
13,RQCAACLGNPST,0.665 ± 0.1
14,EKKRAGEDGRGK,0.673 ± 0.0081
15,RRPAQDAEPIQP,0.661 ± 0.067
16,YTRAGNDKIFWE,0.809 ± 0.0096
17,WGCCRPERNCAV,0.702 ± 0.02
18,FALERLWFMSVG,0.67 ± 0.031
19,GGFRDIAYCLVP,0.613 ± 0.0072
20,VFESGRYLRVAP,0.777 ± 0.05
21,LFLFPVCFTNDL,0.661 ± 0.025
22,VDVWCGRGVGRG,0.707 ± 0.031
23,VVAIGRVWGERA,0.68 ± 0.059
24,IVPVCFVTDQHA,0.6605 ± 0.00071
25,WDGGPTRSGGTG,0.711 ± 0.013

row,Sequence,protein stability index
1,SRKKDEGEYHRK,0.68 ± 0.036
2,DQKFSPYRTPPF,0.667 ± 0.058
3,ISRSLVDHQARP,0.695 ± 0.045
4,GPSRKCPFDVVS,0.6654 ± 0.0021
5,VSFCRVLQSSQS,0.692 ± 0.021
6,SWVIRSDLHYAL,0.731 ± 0.032
7,LPLYYPPGTREL,0.708 ± 0.027
8,GWVVGRGRLGVV,0.655 ± 0.028
9,HTPPPPRHPYKH,0.741 ± 0.055
10,ENMVLQKRGIKV,0.5024 ± 0.0049
11,PPSPSPLPHSSP,0.676 ± 0.058
12,DSSLSRPGRLLP,0.73 ± 0.012
13,TVLRMFPPRSIW,0.67 ± 0.046
14,LPPPFPSPPRPP,0.617 ± 0.14
15,KVIGSAPRAEGR,0.656 ± 0.065
16,QREYHENKIKYI,0.563 ± 0.066
17,VRVSPDVYGSFM,0.5897 ± 0.0057
18,RRYWVLSTVPVL,0.615 ± 0.028
19,CLGPGVLVGCVC,0.402 ± 0.16
20,NKFNTINQNREV,0.678 ± 0.04
21,GGSALGCLCRWM,0.823 ± 0.029
22,ASSPSLSSPPTL,0.7106 ± 0.0051
23,PDPPSPSPFPAP,0.724 ± 0.049
24,SHAGTEAGPGWM,0.782 ± 0.2
25,KDTHNEKKGTPS,0.686 ± 0.082

row,Sequence,protein stability index
1,LHCKDWGHESRD,0.6838 ± 0.0057
2,ELDRIRPHEQSH,0.723 ± 0.03
3,LFGLCLAGFCVP,0.625 ± 0.046
4,LVIGTTLSSLML,0.742 ± 0.066
5,GGKLNRAGRATG,0.697 ± 0.088
6,AGAGGGQGKGRE,0.639 ± 0.019
7,RITSSLCPPLLR,0.695 ± 0.013
8,FLQAKSQGEHFR,0.694 ± 0.012
9,VPSPRHFPLPPP,0.647 ± 0.049
10,PPLPSPPQPYSA,0.639 ± 0.013
11,GGRGGEGRGGSG,0.658 ± 0.018
12,SVRSYYVRSMLE,0.692 ± 0.076
13,PPPPLSPPPEPR,0.659 ± 0.014
14,GVGGVCEMVAIK,0.506 ± 0.028
15,GVWTRTWSLQWI,0.561 ± 0.015
16,LFLTFYSPLSFT,0.646 ± 0.022
17,GWVPDGCVGSIG,0.653 ± 0.069
18,WIISERDRTEQT,0.733 ± 0.06
19,PLALLPPPPHPP,0.597 ± 0.07
20,LVLLFGIGTTHW,0.65 ± 0.049
21,PPPLPSPPRPPS,0.734 ± 0.045
22,LLDSLCEKTFRS,0.677 ± 0.032
23,GESTNVYTTHWI,0.736 ± 0.011
24,AGRTGVLGGHVP,0.691 ± 0.0095
25,VFSCWQFAGGGY,0.69 ± 0.037

row,Sequence,protein stability index
1,TPPLPPSLSPTH,0.708 ± 0.0085
2,TVFPPLPTLPCV,0.792 ± 0.1
3,GAILQVEAITHN,0.657 ± 0.068
4,CCFFPPPGRTRQ,0.676 ± 0.015
5,GHAPSSCPPPPR,0.692 ± 0.062
6,GEGRRWGSFWVG,0.6701 ± 0.0039
7,LLVLPLVFSCSS,0.53 ± 0.0078
8,LVVGNQFIRRSD,0.685 ± 0.023
9,GEGRRQIKEEHV,0.6842 ± 0.0042
10,SCPLSARLYASL,0.675 ± 0.079
11,WKNTNSLRAPAL,0.675 ± 0.016
12,SFHRICTYVLRP,0.634 ± 0.089
13,LANAGLVLPRIP,0.679 ± 0.0071
14,PPPPPPPPLAPP,0.694 ± 0.022
15,VLSFLSSFFVRV,0.65 ± 0.079
16,WEVGVGRQDVEW,0.7448 ± 0.0065
17,YCLLCSFVGPPA,0.731 ± 0.19
18,RPALRPSPPLSP,0.682 ± 0.056
19,PRSSLPPPPSLP,0.686 ± 0.038
20,IEKKKIDNKVKS,0.712 ± 0.079
21,PYHVPTPRATNR,0.659 ± 0.026
22,ETKFLVDRKTDI,0.67 ± 0.012
23,FPPRPPPSPSAH,0.675 ± 0.027
24,SFWWGGWGVGPD,0.73647 ± 0.0004
25,CRTIILCLLTNL,0.498 ± 0.024

row,Sequence,protein stability index
1,RGALGVVWAGLD,0.638 ± 0.021
2,CGLSYSISVNMR,0.627 ± 0.02
3,GQKKGRGGEREE,0.676 ± 0.03
4,GPSPLTMPGSPS,0.683 ± 0.064
5,RILSCGCVCFVM,0.702 ± 0.031
6,SRCSEPVGGGGA,0.704 ± 0.085
7,FRFLFSPSRPPF,0.633 ± 0.05
8,GCSVSRIRSAYV,0.672 ± 0.0089
9,GVCGGGGGWGVA,0.6826 ± 0.0019
10,APPPPPVHPSSP,0.734 ± 0.011
11,VSIPRTLFITRF,0.67018 ± 0.00016
12,VDASGYDEQSVH,0.6622 ± 0.0018
13,RKKTQQKTQNIQ,0.67 ± 0.024
14,HKGKELTNNAML,0.678 ± 0.039
15,NKLYDESLALYP,0.704 ± 0.044
16,SSRVALRIPGIG,0.678 ± 0.024
17,PPTHHRALRPSA,0.687 ± 0.026
18,PLPAPAPSPPSP,0.695 ± 0.018
19,SRRWRPDSSRIQ,0.667 ± 0.1
20,ITSLQAPPEYLH,0.6922 ± 0.0062
21,SPASPNALPAAP,0.741 ± 0.046
